Paper PMC5779224, “Autoinhibition of ankyrin-B/G membrane target bindings by intrinsically disordered segments from the tail regions” (eLife, 2017)

Columns and labels:
[1] = molecular target: T1, AnkB 28–965 (MBD + AI-c + AI-b) (human, UniProt Q01484-2 28-965); test: ITC; VP-ITC MicroCal, 25 °C; proteins in 50 mM Tris-HCl pH 7.8, 1 mM DTT, 1 mM EDTA with 100 mM or 500 mM NaCl as required; who was titrated is not told; settings: both partners purified
T1 construct: numbers count on: human 220 kDa AnkB NM_020977.3; also called extended MBD containing the entire linker; source: E. coli BL21 (DE3), purified (Ni2+-NTA, size exclusion)
T1 sequence (looked up): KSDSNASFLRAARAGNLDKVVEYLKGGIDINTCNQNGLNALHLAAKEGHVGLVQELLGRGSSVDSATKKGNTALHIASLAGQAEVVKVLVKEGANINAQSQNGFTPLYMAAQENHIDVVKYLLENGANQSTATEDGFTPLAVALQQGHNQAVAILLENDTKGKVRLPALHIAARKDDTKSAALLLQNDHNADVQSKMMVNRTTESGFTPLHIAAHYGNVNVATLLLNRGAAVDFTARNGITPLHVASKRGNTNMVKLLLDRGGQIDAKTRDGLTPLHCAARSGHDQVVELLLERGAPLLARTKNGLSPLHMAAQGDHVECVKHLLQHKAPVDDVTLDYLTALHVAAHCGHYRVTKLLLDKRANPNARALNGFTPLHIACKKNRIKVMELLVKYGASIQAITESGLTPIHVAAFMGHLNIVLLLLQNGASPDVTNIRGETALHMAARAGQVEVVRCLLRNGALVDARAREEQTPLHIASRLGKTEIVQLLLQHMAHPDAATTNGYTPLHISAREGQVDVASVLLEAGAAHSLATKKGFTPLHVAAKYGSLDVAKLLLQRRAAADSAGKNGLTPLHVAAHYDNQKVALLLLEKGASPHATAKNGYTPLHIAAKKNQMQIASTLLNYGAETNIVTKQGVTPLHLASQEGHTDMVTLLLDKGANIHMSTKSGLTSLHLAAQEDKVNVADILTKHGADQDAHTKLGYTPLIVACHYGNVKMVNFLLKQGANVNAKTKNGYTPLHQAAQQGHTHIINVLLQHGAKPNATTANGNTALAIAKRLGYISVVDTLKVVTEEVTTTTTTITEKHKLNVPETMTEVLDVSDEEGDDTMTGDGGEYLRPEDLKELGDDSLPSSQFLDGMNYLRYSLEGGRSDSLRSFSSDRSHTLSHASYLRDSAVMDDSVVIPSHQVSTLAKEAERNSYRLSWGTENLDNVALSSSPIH

[2] = molecular target: T2, AnkG 38–903 (MBD + AI-c + AI-b) (rat, UniProt O70511-1 38-903); test: as above; settings: both partners purified
T2 construct: numbers count on: rat AnkG NM_001033984.1 (MBD-UPA); also called extended AnkG MBD; source: E. coli BL21 (DE3), purified (Ni2+-NTA, size exclusion)
T2 sequence (looked up): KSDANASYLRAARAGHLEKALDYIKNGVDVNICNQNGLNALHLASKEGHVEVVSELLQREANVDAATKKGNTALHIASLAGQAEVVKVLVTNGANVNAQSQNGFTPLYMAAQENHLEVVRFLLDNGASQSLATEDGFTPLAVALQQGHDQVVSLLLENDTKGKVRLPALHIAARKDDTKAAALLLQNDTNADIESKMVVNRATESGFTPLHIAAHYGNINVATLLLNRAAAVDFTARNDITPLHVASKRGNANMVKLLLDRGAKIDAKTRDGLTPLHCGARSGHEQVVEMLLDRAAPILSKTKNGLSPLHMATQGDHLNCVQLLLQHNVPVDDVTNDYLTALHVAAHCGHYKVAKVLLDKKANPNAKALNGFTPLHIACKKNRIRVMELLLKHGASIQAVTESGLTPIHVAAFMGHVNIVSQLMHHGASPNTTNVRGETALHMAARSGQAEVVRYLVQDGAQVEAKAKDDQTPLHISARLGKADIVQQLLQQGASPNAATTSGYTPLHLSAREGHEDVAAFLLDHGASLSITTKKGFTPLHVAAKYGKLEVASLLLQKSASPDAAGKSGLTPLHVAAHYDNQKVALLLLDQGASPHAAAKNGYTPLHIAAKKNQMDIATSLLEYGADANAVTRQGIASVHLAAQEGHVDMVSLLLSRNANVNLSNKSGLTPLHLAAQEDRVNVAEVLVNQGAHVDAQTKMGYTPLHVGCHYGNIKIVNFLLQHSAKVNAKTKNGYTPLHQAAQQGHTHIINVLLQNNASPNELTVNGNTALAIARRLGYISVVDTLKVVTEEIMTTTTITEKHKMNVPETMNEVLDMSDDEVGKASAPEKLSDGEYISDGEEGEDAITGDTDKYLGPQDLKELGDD

binding result [1]: binds | binding result [2]: binds
B1: Nav1.2 (aa 1035–1129) (domain or fragment, mouse, UniProt B1AWN6 1035-1129, looked up)
chain: KALDEIKPLEDLNNKKDSCISNHTTIEIGKDLNYLKDGNGTTSGIGSSVEKYVVDESDYMSFINNPSLTVTVPIAVGESDFENLNTEEFSSESDM
notes: source: E. coli BL21 (DE3), purified (Ni2+-NTA, size exclusion)
